In US11623951B2, “Antibodies to R-spondin 3” (National Health Research Institutes, priority 2017, dated 2023):
Several values for one entry are separate records, joined by “and”; a condition that tells them apart may be missing. Equal entries are not always repeated.

T1: RSPO3 (Homo sapiens, UniProt Q9BXY4)
T1 sequence (Q9BXY4 22-272): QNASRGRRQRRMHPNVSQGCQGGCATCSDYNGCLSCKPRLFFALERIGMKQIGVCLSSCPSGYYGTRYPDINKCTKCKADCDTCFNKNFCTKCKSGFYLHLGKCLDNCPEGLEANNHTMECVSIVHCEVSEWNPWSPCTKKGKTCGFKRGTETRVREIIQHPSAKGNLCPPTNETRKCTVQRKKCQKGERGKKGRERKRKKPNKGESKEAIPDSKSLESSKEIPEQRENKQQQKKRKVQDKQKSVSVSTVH


How the values were obtained:
[1] = test system: human SNU-1411 colon xenograft tumor; assay: SNU-1411 colon xenograft tumor carrying PTPRK(e13)-RSPO3(e2) fusion transcript; type: in vivo, mice
Protocol: FIG. 15 is a set of graphs showing anti-tumor efficacy of in human SNU-1411 colon xenograft tumor carrying PTPRK(e13)-RSPO3(e2) fusion transcript. Tumor cells were injected into the mice and treatments were initiated when the tumors reaches 200 mm^3. Antibodies were given at 25 mg/kg once every other week (Q2W) and paclitaxel at 20 mg/kg once every week (Q1W). Both antibodies and […] were administered by intravenous injection. Paclitaxel was given from day 1 to day 32 and combination groups from day 1 to day 46. Both antibodies and paclitaxel were administered by intravenous injection. For each treatment cycle, antibodies were given on day 1 and paclitaxel on day 3. Tumor and body weight measurements were taken on the indicated days. Mean±SEM. *: p<0.05 vs. control mAb by one-way ANOVA followed by Tukey's post-test comparison.
To determine the effect of antibodies on SNU-1411 xenograft tumor, tumor-bearing animals were randomized and treatment began when mean tumor volumes reached approximately 150-200 mm^3. Antibodies were given once every other week (Q2W) and paclitaxel was administered once a week (Q1W). Both antibody and paclitaxel were administered intravenously. Tumor growth was measured twice a week by an electronic caliper. Tumor volumes were calculated with the formula (L×W^2)/2, where L was the longest and W was the shortest axis of the tumor. Animal weights were recorded once a week. Mice were examined frequently for overt signs of any adverse drug-related side effects. At the end of the study, all the mice were euthanized.

RSPO1, 2, 3, and 4 = assay: Antigen-binding ELISA, selectivity among RSPO1-4
Source text: FIG. 3 is a set of graphs showing Anti-RSPO3 hybridoma antibodies reactivity measured by ELISA. These hybridoma antibodies were reacted with RSPO1-4 antigen immunoblots, which reflect with the RSPO3 antigen. (A) A1, A2, A4, A5, A6, and A9 clones; and (B) B1, B3, B4, B8, and B9 clones.
To assess the RSPO-binding capability of antibodies, purified antibodies were reacted with RSPO1, 2, 3, and 4 on immunoblots. To perform antigen-binding ELISA assay, 96-well high binding polystyrene plates (Corning) were coated with 2 μg/ml of recombinant RSPO3 preparation in the capture buffer by overnight incubation at 4° C. Coated plates were washed twice with PBS supplemented with 0.05% Tween 20 (PBST). The plates were blocked with PBST—10% BSA and assayed with ELISA standard protocol for 1 h at room temperature.

[2] = test system: RSPO3-Wnt signaling (hRSPO3), MDA-MB436 TCF/LEF-Luc cells; assay: TCF/LEF-Luc WNT reporter assay in MDA-MB436 cells stimulated by Wnt3a plus human RSPO3; type: cell-based; conditions: MDA-MB436 reporter cell line
Protocol: FIG. 4 is a set of graphs showing RSPO3 Abs targeting the canonical Wnt signaling and in vitro testing for inhibition of β-catenin activity. (A) A1, A2, A4, A5, A6, and A9 clones; (B) B1, B3, B4, B8, and B9 clones; and (C) Dose-response effect of elevated A4 and A6 clones on RSPO-Wnt signaling. MDA-MB436 TCF/LEF-Luc cells were incubated with a combination of Wnt3a (20 ng/mL) and RSPO3 (50 ng/mL) in the presence of 20 μg/mL anti-RSPO3 antibodies clone A1, A2, A4, A5, A6, A9 or 131R002. As controls, cells were incubated with a combination of Wnt3a and RSPO3, Wnt3a only, RSPO3 only, or with no addition. The cells were incubated for 16 hours and the luciferase activity assay was performed using One-Glo Luciferase Assay System.
FIG. 6 is a set of graph showing that anti-RSPO3 Ab inhibits WNT reporter activity stimulated by combination of Wnt3a and RSPO3. […] The cells were incubated for 16 hours. The luciferase activity assay was performed using One-Glo Luciferase Assay System.
Wnt signaling leads to β-catenin/TCF dependent transcriptional responses. MDA-MB436-TCF/LEF-Luc cells, a gift from Dr. Kelvin Kun-Chih Tsai, were employed to monitor the activity of Wnt signal transduction pathways. See, e.g., Wang et al. (2013). Gastroenterology (145): 1110-1120. In brief, MDA-MB436-TCF/LEF-Luc cells were seeded in black flat bottom 96 well culture plates (Costar) in RSPO Medium supplemented with 10% FBS and incubated overnight at 37° C., 5% CO2. 24 hours after incubation, cells were treated with anti-RSPO3 ab, 20 ng/ml WNT3a (R&D system) and RSPO ligands (Peprotech Systems) where appropriate and further incubated for 16 hours. Luciferase activity was measured using Bright-Glo Luciferase Assay System (Promega).

RSPO3 = molecular target: T1, RSPO3; assay: Octet (ForteBio) kinetic binding to biotinylated RSPO3; conditions: 30° C.
Protocol: The streptavidin-coated sensors were coated with 10 μg/ml of biotinylated RSPO3 as described in the handbook of ForteBio. Antibody concentrations were in the range of 0.75 and 93.8 nM. Quantitative kinetic binding analysis was performed with pH-adjusted PBS with 0.5% BSA. All steps were run at 30° C. with a continuous shaking speed at 1000 rpm.
To assess the RSPO3-binding affinities of the antibodies, kinetics assays were performed by the Octetsystems. The purified monoclonal antibodies (mAbs) from batch-A clones (A1, A4, A6, A9), along with the reference Ab-131R002, were examined for binding with RSPO-3.

[3] = test system: hRSPO3 overlapping linear peptides; assay: PepSet ELISA epitope mapping with linear 10-mer peptides of RSPO3; type: binding, human; conditions: antibody 10 μg/ml
Source text: FIG. 8 is a set of graphs showing mapping of the α-RSPO3 Ab epitopes on RSPO3 protein by Pep-set. These histograms represent the ability of each 10-mer oligopeptide to bind the RSPO3 Abs 131R010(A), 131R002 (B), and hybridoma A6 (C) as indicated in the figure. QNASRGRRQR (SEQ ID NO: 74); ASRGRRQRRM (SEQ ID NO: 75); RGRRQRRMHP (SEQ ID NO: 84); RRQRRMHPNV (SEQ ID NO: 76); CLSCKPRLFF (SEQ ID NO: 77); SCKPRLFFAL (SEQ ID NO: 78); ERGKKGRERK (SEQ ID NO: 79); GKKGRERKRK (SEQ ID NO: 80); KGRERKRKKP (SEQ ID NO: 81); RERKRKKPNK (SEQ ID NO: 82); RENKQQQKKR (SEQ ID NO: 83).
ELISA for PepSet library was employed to determine α-RSPO3 hB1 antibodies and RSPO3 binding epitope. […] The colorimetric reaction were then stop by 2N HCL and the optical density at 450 nm of each well were determined immediately.
To identify the binding epitopes of α-RSPO3 Abs, an overlapping peptide library (10-mer for each peptide, offset: 2 amino acid residues, total number of peptides to cover the mature hRSPO3:122) derived from hRSPO3 amino sequences was prepared by Mimotope, Inc. The binding of α-RSPO3 mAbs to the overlapping peptides derived from hRSPO3 was measured. […] According to the epitope mapping results using linear peptides (FIG. 8 and Table 6), it was concluded that hB1 likely binds to a conformationlly-determined epitope on huRSPO3.

| selectivity in binding among RSPO1-4 in ELISA (RSPO1, 2, 3, and 4) | RMax (RSPO3) | kdis (RSPO3) | kon (RSPO3) | Molecule | Tumor volume on day 32 ([1]; antibodies 25 mg/kg Q2W, paclitaxel 20 mg/kg Q1W, i.v.) | Tumor volume on day 18 ([1]; antibodies 25 mg/kg Q2W, paclitaxel 20 mg/kg Q1W, i.v., mean±SEM) | Tumor volume on day 32 ([1]; antibodies 25 mg/kg Q2W, paclitaxel 20 mg/kg Q1W, i.v., listed as paclitaxel) | Tumor volume reduction, % of Control mAb ([1]; day 18) | dose-dependent inhibitory effect in TCF/LEF-Luc reporter [2] | Signal (binding to linear RSPO3 peptides) [3] |
| --- | --- | --- | --- | --- | --- | --- | --- | --- | --- | --- |
|  |  |  |  | CC(=O)O[C@H]1C(=O)[C@@]2(C)[C@H]([C@H](OC(=O)c3ccccc3)[C@]3(O)C[C@H](OC(=O)[C@H](O)[C@@H](NC(=O)c4ccccc4)c4ccccc4)C(C)=C1C3(C)C)[C@]1(OC(C)=O)CO[C@@H]1C[C@@H]2O [Paclitaxel, reference compound] | 949 ± 105 mm^3 | 329 ± 59 mm^3 | 950 mm^3 | 69% and 69 ± 6* % |  |  |
| only reacted with RSPO3 |  |  |  | B1: murine anti-RSPO3 mAb, IgG1; VH SEQ ID NO: 10, VL SEQ ID NO: 12 (antibody, V domains shown, Heavy chain variable region; Light chain variable region) VH: QIQLQESGPGLVKPSQSLSLTCSVTGYSITSGYYWNWIRQFPGNKLEWMGYISYDGTNNYNPSLKDRISITRDTSMNQFFLKLNSVTTEDTATYYCSVLLIQYFNIWGAGTTVTVSS VL: DIQMTQSPASLSASVGETVTITCRTSESVNNFLAWFHQKQGKSPQLLVYHAKTLADGVSSRFSGSGSGTQYSLKINSLQPEDFGNYYCQHFWSIPWTFGGGTKLEIKR |  |  |  |  | significantly inhibitory effect in a dose-dependent manner |  |
| only reacted with RSPO3 | 0.2151 | 0.0025 s⁻¹ | 241000 M⁻¹ s⁻¹ | A6: murine anti-RSPO3 mAb, IgG2a; VH SEQ ID NO: 6, VL SEQ ID NO: 8 (antibody, V domains shown, Heavy chain variable region; Light chain variable region) VH: QVQLQQSGAEIVRSGASVKLSCTASGFSITEYYIHWVKQRPDQGLEWIGMIDPENGDTDYAPKFQGKATMTADTSSNTVNLQLSSLTSEDTAVYYCHGPGPLEYWGQGTTLTVSS VL: DIVMTQSPLSLPVSLGDQASISCRSSQSIVHSNGNTYLEWYLQKPGQSPNLLIYRVSNRFSGVPDRFNGSGSGTDFTLKISRVEPEDLGVYSCFQASHVPYTFGGGTKLEIKR |  |  |  |  | significantly inhibitory effect in a dose-dependent manner |  |
| only reacted with RSPO3 | 0.3588 | 0.000884 s⁻¹ | 32700 M⁻¹ s⁻¹ | A4: murine anti-RSPO3 mAb, IgG1; VH SEQ ID NO: 2, VL SEQ ID NO: 4 (antibody, V domains shown, heavy chain variable region; Light chain variable region) VH: QVQLQESGAELAKPGASVKMSCKASGHTLTYYWMHWVKQRPGQGLEWIGYIDPSTGYSEYNQRFEGKATLTADKSSGTVYMQLSSLTSEDSAVYYCARNGPFAYWGQGTLVTVSA VL: DNVLTQSPAIMSASPGEKVTMTCSASSSVNYMYWYQQKPGSSPRLLIYDTSKLASGVPVRFSGSGSGTSYSLTISRMEAEDAATYYCQQWSSSPLTFGVGAKLEIKR |  |  |  |  | significantly inhibitory effect in a dose-dependent manner | neither the A4 nor the hB1 mAbs showed detectable binding signals |
